Reference: the nanobody polyreactivity screen of Harvey et al. (2022)

Experiment: yeast display, Sf9 membrane polyspecificity reagent, FACS + sequencing; frameworks hold sequencing errors
In short: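 Galactose induction of a Saccharomyces cerevisiae BJ5465 synthetic nanobody display library ran 36–48 hours. The cells were then stained for 1 hour at 4 °C with 10% biotinylated, detergent-solubilized Sf9 membrane reagent, pulled down on streptavidin microbeads and FACS-sorted into low and high (top ~1%) gates on expression and reagent-binding fluorescence. Labels for polyreactivity follow the gate of origin.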

Sequence | polyreactivity (PSR sort gate)
QVQLVESGAGLVQAGGSLRVSCAASGSTFDSYAMGLYRQAPGKERELVAAITNGGSTYYADSVKGRFTISRDHAKNTVYLQMNRLKPEDTAVYDCATEDYLLDYLYDYWGPGTQVTVSS | low polyreactivity
QVQLVESGGGLVQARGSLRLSCAASGSIFAQYAMGWYRQAPGKERELVAAITRSTGRTYYADSVKGRFTISRDNANNTVYLQMNSLKPEDTSVYYGNARQRQSKYYPYTTFTYDYWGQGTQVTVSS | high polyreactivity
QVQLVESGGGLVQAGGSLRLSCAASGSTFLVYALGWYRQAHGKEREFVAAISWSGGSTFYADSVKGRFTISRDNAKNTVYLQMNSLKPEDTAVYYCAARQAGYSGRKLYYWGQGTQVTVSS | low polyreactivity
QVHLVESGGGLVQAGGSLRLSCAASGFIFVRNARGWYRQAPGKERELVARISRSGGSTYYADSVKGRFTISRDNAKNTVYLQMNSLKQEDTAVYYCAAVLQAYPRLDYWGQGTQVTVSS | high polyreactivity
QVQLVESGGGLVQAGGSLRLSCAASGLTFGDYALGWYRQAPGKDRELVAVISRSGGSTYYADSVKGRFTISRDNAKNTVYLQMNSLKPEDTAVYYCAAEYYSYRYDGDYWGQGTQVTVSS | low polyreactivity
QVQLVESGGGLVQAGGSLRLSCAASGIIFQLNAMGWYRQAPGKERELVAAISSVGSTYYADSVKGRFTISRDNAKNTVYLQMNSLKPEDTAVYYCAAETYSTAHNAYFEIAYYWGQGTQVTVSS | high polyreactivity
QVQLVESGGGIVQAGGSLRLSCAASGGIFFPNAMGWYRQAPGKERELVAAISWSAGSTYYADSVKVRFTISRDNAKNTVYLKKISLIPEDTAVYYCAAAGSNYTVWYGYYYWGQGTQVTVSS | low polyreactivity
QVQLVESGGGLVQAGGSLRLSCAASGRIFLGNALGWYRQPPGNERELVAAITYSGRSTYYADSVKGRFTISRDHAKNTVYLQMNSLKPEDTAVYFCAARQYWTTDLPFQRYYYWGQGTQVTVSS | low polyreactivity
QVQLVDSGGGLVQAGGSLRLSCAASGFIFPLYTMGWSRQAPGKERELVAAITGSGGSTYYADSVKGRFTISRDNEKNTVYLQMNSLKPEDSAVYYCAKDYTYGMDWGQGTQVTVSS | low polyreactivity
QVQLVESGGGLVQAGGSLRLSCAASGFTFSVYAMGWYRQAPGKERELVATITDSGSTNYADSVKGRFTISRDNAKNTVYLQMNSLKPEDTAVYYCNADFRRYVTYHYYRAVIHHDYWGQGTQVTVSS | high polyreactivity
QVQLVESGGGLVQAGGSLRLSCAASGIIFRRYAMGWYRQAPGKERELVAAITGSGGSTYYADSVKGRFTISRDNAKNTVYLQMNSLKPEDTAVYYCAAKGYPSRYSYGWYNYWGQGTQVTVSS | high polyreactivity
QVQLVESGGGLVQAGGSLRLSCSASGRTFRSYTMGWYRQAPGKERELVAAINRGDRTYADSVKGRFTISRDNAKNTVYLQMNSLKPEDTAVYYCNARYYTHRYDYWGQGTQVTVSS | high polyreactivity
QVQLVESGGGLVQAGGSLRLSCAASGYTFSVNAMGWYRQAPGKESELVATITSSGGGTYYADSVKGRFTISRDNAKNTVYLQMNSLKPEDTAVYYCAADGYWYGDIYPSDYRWYDYWGQGTQVTVSS | low polyreactivity
QVQLVESGGGLVQAGGSLRLSCAASGRTFFFYAMGWYRQAPGKERELVAGITSRGTRTYYADSVKGRFTISRDNAKNTVYLQMNSLKPEDTAVYYCATDDCRDWLNYWGQGTQVTVSS | low polyreactivity
QVQLVESAGGLVQAGGSLSLSCAASGSMFNKYAMGWYRQAPGKERELVAAISVSGTRTYYADSVKGRFTISRDNAKNTVYLQMNSLKPEDTAVYYCATKFFRTAYEYWGQGTQVTVSS | high polyreactivity
QVQLVESGGGLVQAGGSLRLSCAASGLTFKKYTIGWYRQAPGKETQLVAVITSGGSTYYADSVKGRFTISRDNAKNTVYLQMNSVKPEDTAVYYGAVKYPELRSWGNYYWGQGTQVTVSS | high polyreactivity
QVQLGESGGGLVQAGGSLRLICAASGSTFWTNDMGWYRQAPGKERELVAPISQSAGDTYYADSVKARFTISRDNSKNTFYLQMISLKPEDTAVYYCAADLVFYPFTWDGYYYWGQGTQVTVSS | low polyreactivity
QVQLVESGGGLVQAGGSLRLSCAASGSTFRYYAMGWYRQAPGKERELVAAISTGGTTYYADSVKGRFTISRENAKNTVYLQMNSLKPEDTAVYYCNTVRLFDYGYWGQGTQVTVSS | low polyreactivity
QVQLVESGGGLVQAGGSLRLSCAASGRIFILNTMGWYRQAPGKERELLAGISYSGSTYYADSVKGRFTISRDNAKNTVYLQMNSLKPDDTAVYYCAADYDAAWYNDGYYYWGQGTQVTVSS | low polyreactivity
QVQLVESGGGLVQAGGSLRLSCSASGRTFRSNAMGWYRQAPGKEREFVAAIRSRGGSTYYADSVKGRFTISRDNAKNSVYLQMNSLKPEDTAVYYCADKHGSTSHDSWGQGTQVSVSS | high polyreactivity
QVQLVESGGGLVQAGGRLRLICAASGFIFWKNAMGWYRQSPGKQRELVAAISTRGGSTYYADSVKGRFTISRDNAKNSVYLQMNSLKPEDTAVYYCNKEWYQYKHNYWGQGTQVSVSS | low polyreactivity
QVQLVESGGGLVQAGGSLRLSCAASGRTYHAYAMGWYRQAPGKGRELVAAITRTGTTHYADSVKGRFTISRDNAKNTVYLQMTSLKPEDTAVYYCAAQHVRVDAQFVLQGYDYWGQGTQVTVSS | low polyreactivity

Sequence | polyreactivity (PSR sort gate)
QVQLVESGGGLVQAGGSLRLSCAASGRTGVNAMGWYRQAPGKERELVAAINNGDSTYYADSVKGRFTISRDNAKKTVYLQMNSLNPEDTAVYYCAAGLDEGDYWQESDYWGQGTQVTVSS | low polyreactivity
QVQLVESGGGLVQAGGSLRLSCAASGYTFGTYTMGWYRMARWKERELVAGIDSGGTTNYADSVKGRFTISRDNATNTVYLQMHSLKPEHTAVYYSTAYHLLIVDYYLGLYYYRGNYYWGQGTQVTVSS | low polyreactivity
QVQLVESGGGLVQAGGSLRLSCAASGFTFYPNTMGWYRQAPGKERELVAAISSSGGRTYYSDSVKGRFTISRDNAKNTVYLQMNSLKPEDTAVYYCNAAKWLTSGGLDYWGIGTQVTVSS | high polyreactivity
QVQLQESGGLVQAGGSLRLSCAASGSISGRNVMGWYRQSPGKEREFVASITDGSSNNYADSVKGRFTISRDNAKNTVYLQMNSLKPKDTAVYYCAAYAQRAKSFGYWGRGTQVTVSS | low polyreactivity
QVQIVESGGGLVQPGGSLRLSCAASGRIFGRNAMGWYRQAPGKEWELVAAITTSASRTYYADSVKGRFTISRDNAKNTVYLQMNSLKPEDTAVYYCAARPSWYWYKGDYWGQGTQVTVSS | high polyreactivity
QVQLVESGGGLVQAGGSLRLSCAASGRTFQFYAMGWYRQAPGKERELVAAIDLRGGSTYYADSVKGRFTISRDNAKNTVYLQMNSLKPEDTAVYYCNATRSKFGYFYRYDYWGQGTQVTVSS | low polyreactivity
QVQLVESGGGLVQAGGSLRLSCAASGSIFRLYAMGWYRQAPGKEREFVARIRWRGGSTNYADSVKGRFTISRDNAKNTVYLQMNSLKPEDTAVYYCAAKQGTVRAHTYVPWYDYWGQGTQVTVSS | high polyreactivity
QVQLVESGGGLVQAGGSLRLSCAASGRTFVFNAMGWYSPAPGKERDLVAGISGSGGSTYYADSVKGRFTISRDNAKNTVYLQMNSLKPEDTAVYYCATKFPRKELDQDSVSGLGYWGLGTQVTVSS | low polyreactivity
QVQLVESGGGLVQAGGSLRLSCAASGSTIPSYAMGWYRQAPGKERELVASITYSDGTTRYADSVKGRFTISRDNAMNPVYFQMNSLKPEDSAVYYCNAVYYREGMDYWGQGTQVTVSS | low polyreactivity
QFQLVESGGGLVQAGGSLRLSCAAYGSIFMYYAMGWYIQAPGKERELVAAIRRGGNTNYADSVKGRFTISRDNAKNTVYLQMNSLKPEDTAVYYCAAAQYSRYSRVPNYYAGTYYYWGQGTQVTVSS | low polyreactivity
QVQLLESGGGLVQAGGSLRLSCAASGFIFYHYAMGWYIQAPGKERELVAANSRSGTSTYYADSVKGRFTISRDNAKNTVYLQMNSLKPEDTAVYYCNAVYTRYVYYYYEYDYWGQGTQVTVSS | high polyreactivity
QVQLVESGGGLVQAGGSLRLSCAASGSIFGRNAMGWYRQAPGKEREFVATITSRGGRTYYADSVKGRFTISRDNAKNTVYLQMNSLKPEYTAVYYCAADTYISTLKKYRLGDYWGQGTQVTVSS | low polyreactivity
QVQLVESGGGLVQAGGSLRLSCAASGRIFWSYAMGWYRQAPGKERELVAAISYSGGGTYYADSVKGRFTISRDNAKNTVYLQMNSLKPEDTAVYYCAAETYYAPYDYWGQGTQVTVSS | high polyreactivity
QVQLVESGGGLVQAGGILRLSCAASGRTFFSNAMGWYRQAPGKEREFVAAISNGDNTYYADSVKGRFTISSDNAKNTVYLQMNSLKPDDTAVYYCAADQYWSWIYYPVVEYDYWGLGTQVTVSS | low polyreactivity
QVQLVESGGGLVQAGGSLRLSCAASGSIFRYYGMGWSRQAPGKERELVAAITWRGSSTYYADSVKGRFTISRDNAKNSVYLQMNSLNPEDTAVYYCAAYSASYGGYDYWGQGTQVTVSS | high polyreactivity
QVQLVESGGGLVQAGGSLRLSCAASGFIFSSYAMGWYRQAPGKERELVAAITSRGGSTYYADSVKGRFTISRDNAKNTVYLQMNSLKPEDTAVYYCNAVVTKYAKSRFLYYYWGQGTQVTVSS | high polyreactivity
QVQLVESGGGLVQAGCSLRLSSAASGSIFWVNAMGWYRQAPGQERELVAAITWSAGSTYYADSVKGRFTISRDNAKYTVYVEMNSLKPEDTAVYYCAAGGAWYYWTLDYWGLGTQVTVSS | low polyreactivity
QVQLVESGGGLVQAGGSLRLSCAASGSIFGSYAMGWYRQAPGKERELVAAITYSGTSTYYADSVKGRFTISRDNAKNTVYLQMNSLKPEDTAVYYCNAVSRHRSKFDYWGQGTQVTVSS | high polyreactivity
QVQRVESGGGLVQAGGSLRLSCAASGITFWPYAMGWYRQAPGKERELVAAIRASVGRTYYADSVKGRFTISRDNAKNTVYLQMNSLKPEDTAVYYCNAYGRYGKFRVEYDYWGQGTQVTVSS | low polyreactivity
QVQLVESGGGLVQAGGSLRLSCAASGRIFGYYAMGWYRQAPGKERELVDSISSNGTSTYYADSVKGRFTISRDNAKNTVYLQMNSLKPEDTAVYYCAASYWYDKAYDYWGHGTQVTVSS | low polyreactivity
LVHLQESGGGLVQAGGSLRLSCAASGTISPAGYMGWYRPAPGKERELVASINVGGSTNYADSVKGRFTISRDNAKNTVYLQLNCLKPEVNAVYYCAVWGRYRLQLSYWGQGTQVTVSS | low polyreactivity
